Experimental findings from patent US20140377806A1 are described below.

The target of experiment [1] is Full-length human CXCR3 receptor protein with C-terminal 6xHis and HPC4 tag (human) (UniProt P49682). The experiment can be described thus: SPR (Biacore whole receptor assay), receptor on NTA chip, 1:1 fit. (SPR reads the build-up and loss of mass on a sensor chip optically.)
The target in experiment [2] is human CXCR3 (full length, splice variant A) expressed on transfected cells (human) (UniProt P49682).
The target is the same in experiment [3]. The experiment can be described thus: cell-based or functional assay.
For experiment [4] the target is unchanged. The source holds these as a separate data set.

A word on the Kd: it is the constant that tells how readily two partners part at equilibrium. A high value points to weaker binding. As a reminder, the koff is a measure of how fast the partners let go of each other. Low readings indicate a long-lived complex, high ones a short-lived complex. One may read the kon as a measure of how fast the partners come together. As to “human CXCL11 (from UniProt O14625 22-94) (ligand)”, in experiment [1], the dissociation constant Kd stood at 1.72 nM, the dissociation rate constant (koff) came to 0.00441 s⁻¹ and the kon turned out to be 2.58e+06 M⁻¹ s⁻¹.

Take “human CXCL10 (from UniProt P02778 22-98) (ligand)”: in experiment [1], the dissociation constant Kd was found to be 9.76 nM, the koff came out at 0.00127 s⁻¹ and the kon is 136000 M⁻¹ s⁻¹.

In the case of CTRL IgG1 (antibody), the IC50, inhibition of CXCL11-induced calcium mobilization in hCXCR3 HEK cells (FLIPR); isotype control in experiment [2] is 27.6 µg/mL.

With “Anti-hCXCR3 mAb clone 1C6 (Becton, Dickinson catalog #557183) (antibody)”, the IC50 (M), calcium mobilization to CXCL10 in human CXCR3-Gqi4qi4 CHO cells in experiment [3] amounted to 3.14e-06 M. For the same substance, the IC50, inhibition of CXCL11-induced calcium mobilization in hCXCR3 HEK cells (FLIPR); bar labelled '+ CTRL' (panels A to C of the same sheet print '1C6 (+ CTRL)') in experiment [2] is 0.12 µg/mL. In experiment [1], this substance showed a Kd of 3.51 nM, an off-rate constant (koff) of 0.000142 s⁻¹ and a kon of 41100 M⁻¹ s⁻¹. Further, the IC50 (read off the curve), inhibition of CXCL10-induced calcium mobilization [all five panels] in experiment [4] turned out to be 3 µg/mL.

In experiment [1], “mouse CXCL11 (from UniProt Q9JHH5 22-100) (ligand)” returned a dissociation constant (Kd) of 1.17 nM, a koff of 0.00426 s⁻¹ and an association rate constant (kon) of 3.69e+06 M⁻¹ s⁻¹.
